By Tm is commonly meant the temperature at which the thermal transition is half complete.

Where “and” joins values, the source holds several entries; their conditions need not be identical. Equal values may be shown once.

The conditions of the series: Arachis hypogaea, Thermal, DSC, Sodium phosphate 0.05 M, NaCl 0.15 M, transition: 3, reversible: yes, whole UniProt chain shown.

B1: Galactose-binding lectin wild type, P02872 (protein)
chain: MKPFCVFLTFFLLLAASSKKVDSAETVSFNFNSFSEGNPAINFQGDVTVLSNGNIQLTNLNKVNSVGRVLYAMPVRIWSSATGNVASFLTSFSFEMKDIKDYDPADGIIFFIAPEDTQIPAGSIGGGTLGVSDTKGAGHFVGVEFDTYSNSEYNDPPTDHVGIDVNSVDSVKTVPWNSVSGAVVKVTVIYDSSTKTLSVAVTNDNGDITTIAQVVDLKAKLPERVKFGFSASGSLGGRQIHLIRSWSFTSTLITTTRRSIDNNEKKIMNMASA
As for B1, the Tm is 56.9 °C and 61.2 °C (pH 5.5); 57.5 °C (pH 6); 58 °C and 62.5 °C (pH 6.5); 58.5 °C (pH 7); 60.1 °C and 64.4 °C (pH 7.8); 61.2 °C and 65 °C (pH 8.2). Besides, the “unfolding enthalpy (calorimetric)” value is 212 kcal/mol and 113 kcal/mol (pH 5.5); 218 kcal/mol (pH 6); 225 kcal/mol and 121 kcal/mol (pH 6.5); 231 kcal/mol (pH 7); 245 kcal/mol and 132 kcal/mol (pH 7.8); 251 kcal/mol and 135 kcal/mol (pH 8.2). In addition, the “unfolding enthalpy (van 't Hoff)” value (pH 7.4) is 75.1 kcal/mol and 149 kcal/mol.

These data come from FireProtDB (doi:10.1021/bi982828s).
